Laboratory results published in patent US7481993B2, “Chelators for radioactively labeled conjugates comprising a stabilizing sidechain” (Schering AG, priority 2005, dated 2009).
“And” between values parts separate entries of the source, which are not always exact repeats. Equal values may be shown once. * marks the point of attachment. Mercaptoacetyl = O=C(CS)*; Bz = O=C(c1ccccc1)*

Experiment: Cysteine challenge stability of ^99mTc chelator peptides
Format: physicochemical
Protocol: For the ^99mTc radiolabeling, a peptide as the TFA salt was dissolved in saline at 1 mg/mL and 100 μg (100 μL) was added to a ^99mTc placebo vial. The vial was reconstituted with 0.9 mL technetium ^99mTc sodium pertechnetate containing approximately 20 mCi and saline such that the final preparation volume was 1.1 mL. The vial was heated in a boiling water bath for 10 minutes and cooled at room temperature for 10 minutes.
The radiochemical purity (RCP) of the ^99mTc or ^188Re peptides was measured by gradient reversed phase HPLC using a Eurosphere-100 C18 HPLC column and 0.1% TFA mobile phases moderated with acetonitrile. Radioactive components were detected in the HPLC system using an in-line radiometric detector. Under the gradient conditions employed radiolabeled impurities (for example: ^99mTc glucoheptonate, ^99mTc edetate, and ^99mTc pertechnetate) eluted early (between 1 and 4 minutes), while the radiolabeled peptides eluted much later (between 8 and 20 minutes). In general, two isomeric radiometal complexes were observed, and the HPLC RCP was measured as the sum of the percent areas of the peaks corresponding to the two complexes. Radiochemical purity results for each of compounds are summarized in the examples that follow.
To ^99mTc radiolabelled peptide preparations described in Example 3 was added 150 μg of cysteine (approximately a 7-fold molar excess over peptide), and the preparations were stored at room temperature and monitored by HPLC for up to 12 hours. The amount of ^99mTc cysteine formed over time was noted. The initial HPLC analysis was started within 5 minutes of adding cysteine. In all cysteine challenge studies, a chelator compound containing a stabilizing sidechain was screened vs. the corresponding control chelator compound containing no sidechain. The relative amount of ^99mTc cysteine formed over time correlates inversely with the stability of the chelator (ie. less ^99mTc cysteine indicates higher chelator stability).
Several model chelator peptides were prepared with an N^1—N^2-Cys (N^1, N^2=independently any amino acid) amino acid sequence capable of complexing technetium as a triamide thiol chelator. Various stabilizing sidechains were substituted into the N^1—N^2-Cys chelator in two positions R1 and R2 as depicted in FIG. 4. The compounds were screened in the cysteine challenge experiment described in Example 4. Several experiments were conducted where 1-2 chelators were compared directly to a control chelator containing no stabilizing sidechain (compound GoC1 was also analyzed alone in a further study). Results in Table 5 represent % Peptide complexed to ^99mTc (ie. 100%−the amount of ^99mTc cysteine) vs. time.
Several model chelator peptides were prepared with an (β)Dap-N^2-Cys (N^2=any amino acid) amino acid sequence capable of complexing technetium as an amine diamide thiol chelator. This chelator is the chelator in the somatostatin peptides that were evaluated in Examples 5 and 6. Various stabilizing sidechains were substituted into the (β)Dap-N^2-Cys chelator in two positions R3 and R4 as depicted in FIG. 5. The compounds were screened in the cysteine challenge experiment described in Example 4. Several experiments were conducted where 1-2 chelators were compared directly to a control chelator containing no stabilizing sidechain. Results in Table 6 are the same as described in Example 7.
Two model chelator peptides were prepared with a ma-N^1—N^2 (Ma=mercaptoacetyl; N^1, N^2=independently any amino acid) amino acid sequence capable of complexing technetium as a triamide thiol chelator. This chelator has the thiol donor group at the N-terminus of the peptide. A stabilizing sidechain was substituted into the ma-N^1—N^2 chelator in position R5 as depicted in FIG. 6. The compounds were radiolabeled according to Example 3 with the exception that additional NaOH was added to bring the pH of the preparation up to pH 8.5. […]

[1] = N1-N2-Cys triamide thiol chelators, 150 μg cysteine, room temperature, Initial (within 5 minutes)
[2] = N1-N2-Cys triamide thiol chelators, cysteine challenge
[3] = (β)Dap-N2-Cys amine diamide thiol chelators, cysteine challenge
[4] = (β)Dap-N2-Cys amine diamide thiol chelators, cysteine challenge, Initial
[5] = Ma-N1-N2 triamide thiol chelators, preparation pH 8.5, cysteine challenge
[6] = Ma-N1-N2 triamide thiol chelators, preparation pH 8.5, cysteine challenge, Initial
[7] = (β)Dap-N2-Cys amine diamide thiol chelators, cysteine challenge, listed as Dap.GC

Substance | % Peptide Complexed to ^99mTc Initial [1] | % Peptide Complexed to ^99mTc 2 h [2] | % Peptide Complexed to ^99mTc 4 h [2] | % Peptide Complexed to ^99mTc 6 h [2] | % Peptide Complexed to ^99mTc 8 h [2] | % Peptide Complexed to ^99mTc 10 h [2] | % Peptide Complexed to ^99mTc 12 h [2] | further results
Bz-Gly-Gly-Met-Cys-Ala.amide (Bz-GGMCA-NH2; SMILES CSCC[C@H](NC(=O)CNC(=O)CNC(=O)c1ccccc1)C(=O)N[C@@H](CS)C(=O)N[C@@H](C)C(N)=O) | 96.9% | 92.6% | 88.6% | 83.7% | 82.7% | 78.6% | 77.2% | –
Bz-Gly-(β)Dap-Met-Cys-Ala.amide [Dap.MC] | – | – | – | – | – | – | – | % Peptide Complexed to ^99mTc 2 h [3]: 95.4%; % Peptide Complexed to ^99mTc 4 h [3]: 89.8%; % Peptide Complexed to ^99mTc 6 h [3]: 92.6%; % Peptide Complexed to ^99mTc 8 h [3]: 91.6%; % Peptide Complexed to ^99mTc 10 h [3]: 88.4%; % Peptide Complexed to ^99mTc 12 h [3]: 89.7%; % Peptide Complexed to ^99mTc Initial [4]: 97.4%
Ac-Tyr-Gly-Gln-Gly-Cys-Ala.amide (Ac-YGQGCA-NH2) | 92.9% and 96.3% | 88.7% and 88.3% | 88.8% and 86.1% | 86.6% and 84.0% | 85.6% and 82.0% | 83.8% and 77.6% | 84.2% and 75.9% | –
Ma-Gly-Gly-Tyr-Ala.amide (Mercaptoacetyl-GGYA-NH2; SMILES C[C@H](NC(=O)[C@H](Cc1ccc(O)cc1)NC(=O)CNC(=O)CNC(=O)CS)C(N)=O) [Ma.GG, control chelator, no stabilizing sidechain] | – | – | – | – | – | – | – | % Peptide Complexed to ^99mTc 2 h [5]: 91.3%; % Peptide Complexed to ^99mTc 4 h [5]: 75.7%; % Peptide Complexed to ^99mTc 6 h [5]: 61.2%; % Peptide Complexed to ^99mTc 8 h [5]: 48.7%; % Peptide Complexed to ^99mTc 10 h [5]: 42.2%; % Peptide Complexed to ^99mTc 12 h [5]: 32.7%; % Peptide Complexed to ^99mTc Initial [6]: 100%
Ac-Tyr-Gly-Gly-(D)Orn-Cys-Ala.amide [GoC2] | 94.3% | 91.1% | 89.1% | 89.2% | 89.0% | 87.2% | 86.9% | –
Bz-Gly-Gly-Gln-Cys-Ala.amide (Bz-GGQCA-NH2; SMILES C[C@H](NC(=O)[C@H](CS)NC(=O)[C@H](CCC(N)=O)NC(=O)CNC(=O)CNC(=O)c1ccccc1)C(N)=O) | 97.8% | 93.2% | 88.7% | 82.4% | 80.1% | 78.7% | 73.5% | –
Ac-Tyr-Gly-Gly-Orn-Cys-Ala.amide [GOC] | 98.2% | 93.8% | 90.0% | 86.1% | 80.0% | 78.1% | 88.6% | –
Ac-Tyr-Gly-Gly-Gly-Cys-Ala.amide (Ac-YGGGCA-NH2) [GGC2, control chelator, no stabilizing sidechain] | 90.1% and 92.0% and 95.7% and 93.6% | 70.7% and 80.7% and 79.3% and 81.0% and 77.8% | 61.8% and 72.0% and 70.5% and 73.3% and 67.5% | 57.1% and 65.7% and 65.6% and 61.0% and 60.4% | 46.2% and 61.0% and 57.8% and 53.0% and 54.7% | 39.1% and 59.0% and 55.1% and 48.0% and 50.2% | 33.3% and 57.2% and 44.5% and 41.2% and 46.6% | –
Ac-Tyr-Gly-Gly-His-Cys-Ala.amide (Ac-YGGHCA-NH2) | 78.8% | 74.3% | 72.9% | 70.9% | 68.8% | 69.2% | 67.9% | –
Ac-Tyr-Gly-Glu-Gly-Cys-Ala.amide (Ac-YGEGCA-NH2) | 91.4% | 84.1% | 78.1% | 73.3% | 67.4% | 60.1% | – | –
Ac-Tyr-Gly-Met-Gly-Cys-Ala.amide (Ac-YGMGCA-NH2) | 93.9% | 92.4% | 89.3% | 85.9% | 82.0% | 79.9% | 77.2% | –
Ac-Tyr-Gly-(β)Dap-Gly-Cys-Ala.amide [Dap.GC2] | – | – | – | – | – | – | – | % Peptide Complexed to ^99mTc 2 h [3]: 67.7%; % Peptide Complexed to ^99mTc 4 h [3]: 55.1%; % Peptide Complexed to ^99mTc 6 h [3]: 49.6%; % Peptide Complexed to ^99mTc 8 h [3]: 44.7%; % Peptide Complexed to ^99mTc 10 h [3]: 38.0%; % Peptide Complexed to ^99mTc 12 h [3]: 38.7%; % Peptide Complexed to ^99mTc Initial [4]: 83.4%
Bz-Gly-(β)Dap-Gly-Cys-Ala.amide [Dap.GC1] | – | – | – | – | – | – | – | % Peptide Complexed to ^99mTc 2 h [3]: 78.1%; % Peptide Complexed to ^99mTc 2 h [7]: 78.9%; % Peptide Complexed to ^99mTc 4 h [3]: 62.7%; % Peptide Complexed to ^99mTc 4 h [7]: 42.6%; % Peptide Complexed to ^99mTc 6 h [3]: 57.8%; % Peptide Complexed to ^99mTc 6 h [7]: 51.6%; % Peptide Complexed to ^99mTc 8 h [3]: 51.9%; % Peptide Complexed to ^99mTc 8 h [7]: 46.3%; % Peptide Complexed to ^99mTc 10 h [3]: 46.2%; % Peptide Complexed to ^99mTc 12 h [3]: 43.3%; % Peptide Complexed to ^99mTc 12 h [7]: 37.6%; % Peptide Complexed to ^99mTc Initial [4]: 81.7%
Ma-(D)Orn-Gly-Tyr-Ala.amide [Ma.oC] | – | – | – | – | – | – | – | % Peptide Complexed to ^99mTc 2 h [5]: 87.4%; % Peptide Complexed to ^99mTc 4 h [5]: 87.2%; % Peptide Complexed to ^99mTc 6 h [5]: 84.9%; % Peptide Complexed to ^99mTc 8 h [5]: 85.9%; % Peptide Complexed to ^99mTc 10 h [5]: 84.1%; % Peptide Complexed to ^99mTc 12 h [5]: 82.7%; % Peptide Complexed to ^99mTc Initial [6]: 100%
Ac-Tyr-Gly-(β)Dap(COCH2CH2NH2)-Gly-Cys-Ala.amide [Dap-Y.GC] | – | – | – | – | – | – | – | % Peptide Complexed to ^99mTc 2 h [3]: 84.6%; % Peptide Complexed to ^99mTc 4 h [3]: 84.1%; % Peptide Complexed to ^99mTc 6 h [3]: 82.9%; % Peptide Complexed to ^99mTc 8 h [3]: 80.7%; % Peptide Complexed to ^99mTc 10 h [3]: 80.0%; % Peptide Complexed to ^99mTc 12 h [3]: 77.2%; % Peptide Complexed to ^99mTc Initial [4]: 93.7%
